This note sets out measurements from PMC5976803, “Engineered membrane protein antigens successfully induce antibodies against extracellular regions of claudin-5” (Scientific Reports, 2018).

Experiment [1] concerns the target T1, human claudin-5 expressed in HT-1080 cells (Homo sapiens (Human)., UniProt O00501).
T1 construct: claudin-5, human; In the western blot the same protein stood denatured in the cell lysate; The TEER assays used MDCKII cells expressing human CLDN-5; also called human CLDN-5; hCLDN-5; source: HT-1080 cells, stably expressing; on cells and in lysate
Description: flow cytometry on cells; HT-1080 cells stably expressing CLDNs or CLDN-5 mutants, detached with 0.05% trypsin/0.02% EDTA; 5 µg/mL mAb; fluorescence-conjugated goat anti-mouse IgG. The settings on record: one partner purified. In general terms: Flow cytometry measures light scatter and fluorescence of single cells or particles in a stream.

Experiment [2] concerns the target T2, mouse claudin-5 expressed in HT-1080 cells (Mus musculus (Mouse)., UniProt O54942).
T2 construct: claudin-5, mouse; The TEER assays used MDCKII cells expressing mouse CLDN-5; also called mouse CLDN-5; mCLDN-5; source: HT-1080 cells, stably expressing
The experiment is described as above. The settings on record: one partner purified.

Experiment [3] has as its target T3, human claudin-2 expressed in HT-1080 cells (Homo sapiens (Human)., UniProt P57739).
T3 construct: claudin-2, human; also called human CLDN-2; source: HT-1080 cells, stably expressing
The description is as above. The settings on record: one partner purified.

For experiment [4], the target named is T4, human claudin-7 expressed in HT-1080 cells (Homo sapiens (Human)., UniProt O95471).
T4 construct: claudin-7, human; also called human CLDN-7; source: HT-1080 cells, stably expressing
The experiment is described as above. The settings on record: one partner purified.

The target of experiment [5] is T5, human claudin-6 expressed in HT-1080 cells (Homo sapiens (Human)., UniProt P56747).
T5 construct: claudin-6, human; also called human CLDN-6; source: HT-1080 cells, stably expressing
The description is as above. The settings on record: one partner purified.

The target of experiment [6] is T6, human claudin-3 expressed in HT-1080 cells (Homo sapiens (Human)., UniProt O15551).
T6 construct: claudin-3, human; also called human CLDN-3; source: HT-1080 cells, stably expressing
Described as above. The settings on record: one partner purified.

The target of experiment [7] is T7, human claudin-4 expressed in HT-1080 cells (Homo sapiens (Human)., UniProt O14493).
T7 construct: claudin-4, human; also called human CLDN-4; source: HT-1080 cells, stably expressing
The description is as above. Conditions: one partner purified.

Experiment [8] concerns the target T8, human claudin-1 expressed in HT-1080 cells (Homo sapiens (Human)., UniProt O95832).
T8 construct: claudin-1, human; also called human CLDN-1; source: HT-1080 cells, stably expressing
The experiment is described as above. Conditions: one partner purified.

Experiment [9] concerns the target T9, AGIA-tagged human CLDN-5, cell-free synthesized proteoliposome (Homo sapiens, UniProt O00501).
T9 construct: claudin-5, human; codon-converted synthetic gene; The vector pEU-E01-AGIA-GW puts a start codon and the AGIA tag at the 5′-end of the cassette, though the label reads hCLDN-5-AGIA; also called hCLDN-5-AGIA; cell-free synthesized CLDN-5; source: wheat cell-free synthesis on liposomes, proteoliposomes collected by centrifugation; not shown: AGIA, N-terminal, kept
Kind of experiment: ELISA; cell-free synthesized AGIA-tagged CLDN proteoliposomes immobilised on a microtiter plate overnight at 4 °C; mAb 10 µg/mL in 5% skimmed milk/T-TBS, 1 h at room temperature; HRP anti-mouse IgG + IgM. The settings on record: both partners purified. In general terms: An ELISA detects its analyte on a solid surface through an enzyme-linked reagent.

The target in experiment [10] is T1, human claudin-5 expressed in HT-1080 …. Description: flow cytometry on cells; HT-1080/hCLDN-5 cells with purified mAb at 0.0024–40 µg/mL; mean fluorescence intensity fitted to Y = Bmax • X/(Kd + X); apparent dissociation constant; three independent experiments. Conditions: one partner purified.

T5 sequence (P56747 whole entry): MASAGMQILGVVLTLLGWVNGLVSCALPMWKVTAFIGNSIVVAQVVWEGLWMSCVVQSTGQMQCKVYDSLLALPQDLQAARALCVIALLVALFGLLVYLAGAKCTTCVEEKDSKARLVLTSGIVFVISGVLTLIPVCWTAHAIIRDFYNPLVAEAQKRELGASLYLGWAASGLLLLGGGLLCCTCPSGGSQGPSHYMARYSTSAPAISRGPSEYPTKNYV
T6 sequence (O15551 whole entry): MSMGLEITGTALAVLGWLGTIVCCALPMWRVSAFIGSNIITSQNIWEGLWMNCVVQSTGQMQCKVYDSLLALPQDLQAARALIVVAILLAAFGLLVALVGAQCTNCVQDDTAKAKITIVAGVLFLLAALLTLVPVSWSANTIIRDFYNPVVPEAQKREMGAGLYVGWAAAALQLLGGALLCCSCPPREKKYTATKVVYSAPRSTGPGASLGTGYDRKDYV
T2 sequence (O54942 whole entry): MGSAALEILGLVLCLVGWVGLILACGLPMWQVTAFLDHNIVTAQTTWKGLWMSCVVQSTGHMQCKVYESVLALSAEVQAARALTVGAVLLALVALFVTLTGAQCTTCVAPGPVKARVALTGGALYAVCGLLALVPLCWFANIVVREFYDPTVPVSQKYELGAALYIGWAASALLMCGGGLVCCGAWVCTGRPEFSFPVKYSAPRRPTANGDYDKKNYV
T8 sequence (O95832 whole entry): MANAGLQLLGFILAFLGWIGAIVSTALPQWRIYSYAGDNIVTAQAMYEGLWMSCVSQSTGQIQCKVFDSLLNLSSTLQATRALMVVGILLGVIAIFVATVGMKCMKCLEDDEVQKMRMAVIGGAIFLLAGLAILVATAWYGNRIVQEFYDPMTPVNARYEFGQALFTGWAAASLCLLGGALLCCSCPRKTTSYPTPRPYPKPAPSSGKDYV
T1 sequence (O00501 whole entry): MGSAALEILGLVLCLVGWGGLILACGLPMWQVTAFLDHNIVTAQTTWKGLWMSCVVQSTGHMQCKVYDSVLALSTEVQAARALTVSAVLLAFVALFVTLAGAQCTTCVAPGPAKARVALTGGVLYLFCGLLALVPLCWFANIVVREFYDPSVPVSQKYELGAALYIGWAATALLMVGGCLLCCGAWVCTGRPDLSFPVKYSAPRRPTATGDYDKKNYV
T9 sequence (O00501 whole entry): as above
T7 sequence (O14493 whole entry): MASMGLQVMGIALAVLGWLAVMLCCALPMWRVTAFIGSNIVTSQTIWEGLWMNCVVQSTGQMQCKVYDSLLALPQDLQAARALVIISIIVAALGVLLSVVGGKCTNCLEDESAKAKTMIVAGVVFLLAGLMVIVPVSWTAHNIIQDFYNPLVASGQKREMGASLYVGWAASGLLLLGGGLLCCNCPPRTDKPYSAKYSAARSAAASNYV
T4 sequence (O95471 whole entry): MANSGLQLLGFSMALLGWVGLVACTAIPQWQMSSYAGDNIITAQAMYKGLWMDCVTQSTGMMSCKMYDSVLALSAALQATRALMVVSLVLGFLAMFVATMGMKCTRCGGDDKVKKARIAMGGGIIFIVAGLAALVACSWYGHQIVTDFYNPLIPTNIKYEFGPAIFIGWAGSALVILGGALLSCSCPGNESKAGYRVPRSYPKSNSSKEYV
T3 sequence (P57739 whole entry): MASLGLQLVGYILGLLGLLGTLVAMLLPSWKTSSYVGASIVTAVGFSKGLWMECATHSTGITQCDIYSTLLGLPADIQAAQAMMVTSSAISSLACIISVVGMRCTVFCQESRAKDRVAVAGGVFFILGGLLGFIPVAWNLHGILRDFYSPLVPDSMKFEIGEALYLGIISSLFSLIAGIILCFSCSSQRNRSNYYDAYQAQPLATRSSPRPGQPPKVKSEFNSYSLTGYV

B1: anti-CLDN-5 ECR mAb clone 1B3 (antibody, V domains shown)
VH: QIQLVQSGPELKKPGETVKISCKASGYSFTAHGMSWVKQAPGKGLKWMGWINTYSGVPAYADDFKGRFAFSLETSPSTAFLQINNLKNEDTATYFCTRSHYDRKFGYWGQGTLVTVSA
VL: QAVVTQESALTTSPGETVTLTCRSSTGAVTTSNYANWVQEKPDHLFTGLIGDTNNRAPGVPARFSGSLIGDKAALTITGAQTGDEAIYFCALWYSNLWVFGGGTKLTVR
notes: source: hybridoma from an Antigen1-immunized BXSB mouse; ascitic fluid, purified (Protein G Sepharose); also reconstituted as recombinant antibody
For B1, the binding result in experiment [1] is “binds”; in [2] it was “no binding (tested: 5 µg/mL)”; in experiment [3], “no binding (tested: 5 µg/mL)”; in experiment [4] it was “no binding (tested: 5 µg/mL)”; in experiment [5], “no binding (tested: 5 µg/mL)”; in experiment [6], “no binding (tested: 5 µg/mL)”. Also, the binding result in experiment [7] was “no binding (tested: 5 µg/mL)”; in experiment [8] it was “no binding (tested: 5 µg/mL)”; in experiment [9] it was “binds”.

B2: anti-CLDN-5 ECR mAb clone 1D1 (antibody, V domains shown)
VH: QVQLQQPGAEHVKPGASVKLSCKASGYTFTTYWIHWVKQRPGRGLEWIGRIAPNSGGTKYNENFKSKATLTVDRPSTTAYMQLSGLTSEDSAVYYCARWDFTFGTNLDYWGQGTTLTVSS
VL: DIVMTQSQKFMSTSVGDRVSITCKASQNVRTAVAWYQQKPGQSPKALIFLASNRHTGVPDRFTGSGSGTDFTLTITNVQSEDLADYFCLQHWTYPYTFGGGTKLEIK
notes: source: hybridoma from an Antigen2-immunized BXSB mouse; ascitic fluid, purified (Protein G Sepharose); also reconstituted as recombinant antibody
B2: the binding result in experiment [1] is listed as “binds”; in [2] it was “no binding (tested: 5 µg/mL)”; in [3] it was “no binding (tested: 5 µg/mL)”; in experiment [4] it was “no binding (tested: 5 µg/mL)”; in [5], “no binding (tested: 5 µg/mL)”; in [6], “no binding (tested: 5 µg/mL)”. In addition, the binding result in experiment [7] was “no binding (tested: 5 µg/mL)”; in experiment [8], “no binding (tested: 5 µg/mL)”; in [9] it was “binds”.

B3: anti-CLDN-5 ECR mAb clone 2B1 (antibody, V domains shown)
VH: QVQLQQPGAELVKPGASVKLSCKASGYTFTTFWIHWVKQRPGRGLEWIGRIAPYSGGTTYNEKFKSKATLTVDRPSTTAYMQLISLTSEDSAVYYCARWDFTYGSNLDYWGQGTTLTVSS
VL: DIVMTQSQKFMSTSVGDRVSIPCKASQNVRTAVAWYQQKPGQSPKALIYLASNRHTGVPDRFTGSGSGTDFTLTISNVQSEDLADYFCLGHWDYPYTFGGGTKLEIK
notes: as for B2
Regarding B3, the binding result is recorded as “binds” in experiment [1]; “no binding (tested: 5 µg/mL)” in experiment [2]; “no binding (tested: 5 µg/mL)” in experiment [3]; “no binding (tested: 5 µg/mL)” in experiment [4]; “no binding (tested: 5 µg/mL)” in [5]; “no binding (tested: 5 µg/mL)” in [6]. The binding result in experiment [7] was “no binding (tested: 5 µg/mL)”; in experiment [8], “no binding (tested: 5 µg/mL)”; in experiment [9] it was “binds”.

B4: anti-CLDN-5 ECR mAb clone 2B12 (antibody, V domains shown)
VH: QVQLQQSGAELARPGASVKLSCKASGYTFTRFGMSWVKQRTGQGLEWIGEIYPGSGDTYYSENFKGKATLTADKSSGTAYMELRSLTSEDSAVYFCARWGIYYGNPYAMDYWGQGTSVTVSS
VL: DIVMTQAAPSVPVTPGESVSISCRSSKSLLHSNGNTYLYWFLQRPGQSPQLLIYRMSNLASGVPDRFSGSGSGTAFTLRISRVEAEDVGVYYCLQHLEYPFTFGSGTKLEIK
notes: as for B2
Take B4: the Kd in experiment [10] stood at 7.37 nM. Moreover, the binding result in experiment [2], in experiment [3], in experiment [4], in [5], in [6] and in experiment [7] was “no binding (tested: 5 µg/mL)” each time. Besides, the binding result in experiment [8] was “no binding (tested: 5 µg/mL)”.
